Laboratory results published in the supplement of paper PMC9170038.

Each sequence was assayed on MS2 coat protein (assay: apparent KD of MS2 coat protein, switch OFF state (with FMN for OFF switches, without FMN for ON switches); designed switch direction (-1 OFF switch, 1 ON switch): 1; higher = weaker reporter binding). Settings: FMN input: 0 or 200 uM; Eterna round: R93 (includes R88 designs).
Method in brief: (§1)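 Designed RNA switches were transcribed on-chip from Illumina sequencing clusters. SNAP-549-labelled MS2 coat protein was titrated onto them in twofold steps from 0.7 or 1.5 nM to 3 µM in 100 mM Tris-HCl pH 7.5, 80 mM KCl, 4 mM MgCl2, either without or with constant ligand. Apparent KD reflects the per-design median of normalised cluster binding-curve fits.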

Row | Sequence | apparent KD of MS2 coat protein
1 | AAAACACAUGAGGAUCACCCAUGUAGAAAUACGGGAGGAUAUGCUAAAACGAAAGACAAUGUAGAAGGCCUAAAAG [saturn 10] | 59.6 nM
2 | GGAAAACAUGAGGAUCACCCAUGUGAAAACGUGGGAGGAUAUCCAUGGAAACCAUACUGUGGAGAAGGCCCAUGUC [EteRNA is fun!] | 65.2 nM
3 | AAAAAACAUGAGGAUCACCCAUGUAGAAAUAUGGGAGGAUAUACAAAGACGAAAGUCAAAGUAGAAGGCCUAAAAA [77%, Mat - Mod of Eli, 2] | 57.8 nM
4 | ACUAUACAUGAGGAUCACCCAUGUUAGGUGGGACUAGGAUAUCAAAAGCCAGAGUAAGAAUGAGAAGGAGUAGAAA [JR_SS001_Sub301] | 34.8 nM
5 | AUAUAUAAAAGGUAGGAUAUUCUAAAAUAAACAUGAGGAUCACCCAUGUAAAGAAAGAAACUCAUGGAGAAGGACCAUAUAUAUA [ss2 5th modifying Eli's mod of Tesla] | 156 nM
6 | AAUACACAUAGUCAGGAUAUCAAAAAUAAGACAUGAGGAUCACCCAUGUAAUAAGUAAAAGUAAAUGAGAAGGGACAGGGUGACC [JR_SS002_Sub403] | 199 nM
7 | GAAAAACAUGAGGAUCACCCAUGUAGAAAUAUGGGAGGAUAUACGAAGACGAAAGUCAAAGUAGAAGGCCUAAAAG [Mat - Same State 1 - Eli mod - D22] | 57.3 nM
8 | GCUCCAGCUAGCAAGGAUAUGUAGGAUGCUACAUGAGGAUCACCCAUGUGCUGAAAUAAGUCCCGGCAGAAGGUGUGACUGGAGA [Laedtear] | 26.9 nM
9 | AGAAAACAUGAGGAUCACCCAUGUAGAAAUAUGGGAGGAUAUACAAAGACGAAAGUCAAAGUAGAAGGCCUAAAAG [Mat - Same State 1 - Eli mod - 35] | 78.3 nM
10 | AGGAGACAUGAGGAUCACCCAUGUAGAAGGAUGGGAGGAUAUACAAAGACGAGAGUCAGAGUAGAAGGCCUAGGAA [salish99-ss1-182(!)] | 55.4 nM
11 | GGCAGUCCGACACAGGAUAUGGGUAACGAAACAUGAGGAUCACCCAUGUGGAAACAUCGGGUUGCCUAGAAGGGUGGAAAGAUUG [Xeti] | 259 nM
12 | AUAAAUAAAAGCAAGGAUAUCCAAAAGAAAACAUGAGGAUCACCCAUGUAAAAGAAAAUAAAAUGGGAGAAGGUGCAAAAUAAAU [viburnum 8] | 27.5 nM
13 | AGAAAUAAAACGAAGGAUAUCCAAAAUAAAACAUGAGGAUCACCCAUGUAAAAGAAAAUAAAGUGGGAGAAGGUCGAAAAUAAGA [Designing denovo 15] | 54.4 nM

These sequences were tested on MS2 coat protein (assay: apparent KD of MS2 coat protein, switch ON state; designed switch direction (-1 OFF switch, 1 ON switch): -1; higher = weaker reporter binding). Settings: FMN input: 0 or 200 uM; Eterna round: R93 (includes R88 designs).
Method in brief: as §1

Row | Sequence | apparent KD of MS2 coat protein
14 | AAAGCUGAAGGAUAUACUUGGAAAAAAAAAAAAAAAAAAAAACAUGAGGAUCACCCAUGUAGAAGGUCAGAUAA [Mat - Mod] | 41.1 nM
15 | GAACACGGAGGAUAUACAUGAGGAUCACCCAUGUUGAUCCUCAUUAAAAUUGAUAAAUGUAGAAGGCCGUGAUA [Exclusion 3.11 (a Vinnie Mod, FMN+ favored more)] | 49.4 nM
16 | AUCUAGUCAGGAUAUGACUACAUAAAAAAUAAAAAAUGUAGUCAGAAGGGACAUGAGGAUCACCCAUGUACUAA [Mat - Exclusion 4 - Eli mod - D95] | 26.3 nM
17 | AAAAAACAUGAGGAUCACCCAUGUAAGGAUAUCUAAAAUAAAAGAAAAAUAAAGAAAAGGAGAAGGUACAAGGA [JL wbt mod 25] | 13.8 nM
18 | AAAACACAUGAGGAUCACCCAUGUGAGGAUAUGCAAAACCCAUAUAAAAAGGGAAAAAGCAGAAGGCACAAAAA [wbt round 1 mod 12] | 22.4 nM
19 | AAAGGGUCAGGAUAUCGAUGAAUAAUAAAACAAAGGAACAUCGAGAAGGGACAUGAGGAUCACCCAUGUAUAAC [May 80] | 42.4 nM
20 | AAAAAACAUGAGGAUCACCCAUGUAAGGAUAUGCUGAAAAAACACUGGAAACAGUGCAGCAGAAGGUACAAAAA [66%, Wbt, 35] | 21.5 nM
21 | CUUAGACAUGAGGAUCACCCAUGUGAGGAUAUGAUGCGAAUAAAGAAAGAAGAAAGCAUCAGAAGGCACAUAUG | 41.3 nM
22 | AGUCUGAGAGGAUAUACAUGAAAAAAAAAAGUAAGAUCCCUACAUGAGGAUCACCCAUGUAGAAGGCUCUGACA [Ex2 Design 145: Sub-opt 9] | 31.4 nM
23 | AGCUAGUCAGGAUAUACGAACAAGAAAAAAGACGAGAACGGACAUGAGGAUCACCCAUGUAGAAGGGACUAGCA [Diamond 9] | 23.8 nM
24 | AAGAAGGUAGGAUAUACUAAAGAAACUAAUGCAAAGAUAAAACAUGAGGAUCACCCAUGUAGAAGGGCCAGAAA [JR_Exc002_Sub016] | 35.6 nM
25 | AGUUGGCGAGGAUAUACAUGAGGAUCACCCAUGUAAAAUAAAUAAAAAAGGGAAGAAAGUAGAAGGCGCUGACA [73%, Moding Norbert Elias, 11] | 40.5 nM
26 | AAUAAGACAGGAUAUACUAAAGAAAUGAAAAGAAAUAAAGAACAUGAGGAUCACCCAUGUAGAAGGGUCAAUAA ['Apepi] | 50.3 nM
27 | AGCUGGUCAGGAUAUGCGUGAAGAAUAAAACAAAUAACAACGCAGAAGGGACAUGAGGAUCACCCAUGUCAGCA [May 50] | 23.9 nM
28 | AAAAAGCUAGGAUAUACGAAAAAAAAGGGUAGAAAAAAAAAACAUGAGGAUCACCCAUGUAGAAGGAGCAAAAA [Mat - Exclusion 2 - Tesla mod - D34] | 51.5 nM
29 | AAUAAAGGAGGAUAUACUAAAGAAAUGAAAAGAAAUAAAGAACAUGAGGAUCACCCAUGUAGAAGGCCUAAUAA [Yaqub-Har] | 31.3 nM
30 | AACAAGUCAGGAUAUGCGAAAAGAAAAUAAGAUACACAAAAGCAGAAGGGACAUGAGGAUCACCCAUGUAAAUA [JR_Exc004_Sub011] | 36 nM
31 | AACAGUACAGGAUAUACAUGAGGAUCACCCAUGUAAAAUAAAUAAAAAUAAAAAGGAAGUAGAAGGGUACUGGA [Moding Maslow revisited (73) 18] | 30.1 nM
32 | AACAGGACAGGAUAUACAUGAGGAUCACCCAUGUGAGAAUUAAGUAGAUUACCACAGAGUAGAAGGGUCCUGGA [Ruby 96] | 47.7 nM
33 | GUGGAACAUGAGGAUCACCCAUGUGAGGAUAUAGGUUUUUGGGAAAAACUAGGAGAAACUAGAAGGCGCAAGAA [Exclusion 1.1] | 26.2 nM
34 | GGUUGGCGAGGAUAUACAUGAGGAUCACCCAUGUGAGAGAAAAAAGUGAGAAAGCAAAGUAGAAGGCGCUGACG [salish99-ex3-27] | 51.4 nM
35 | AAAAACUGAGGAUAUACAUGAGGAUCACCCAUGUGAAAGAACGAAAAACGAAAAGCAAGUAGAAGGCAGAAAAA [Ruby 77] | 20.9 nM
36 | GCUGUCCAAGGAUAUACAUGAGGAUCACCCAUGUGAGAGAAAAAAGUGAGAAAGAAAAGUAGAAGGUGGGUAGG [salish99-ex3-103] | 31.6 nM
37 | AACUGACAUGAGGAUCACCCAUGUCAGGAUAUGAUUUGACGAAAAAAAAUAAGUCAUAUCAGAAGGGACAUGGA [Design 84: Sub-opt WB] | 26 nM
38 | GCUGGCCAAGGAUAUACAUGAGGAUCACCCAUGUGAGAGAAAAAAGUGAGAAAGAAAAGUAGAAGGUGGGUAGG [salish99-ex3-111] | 59 nM
39 | AACAGUACAGGAUAUACAUGAGGAUCACCCAUGUGAAAGAAAAGUGGCGUACCACAAAGUAGAAGGGUACUGGA [Mat - Exclusion 3 - JL mod - D23] | 26.9 nM
40 | AAAAUGUGAGGAUAUGUACGAAAAAAUAAAAAAAUAAAAGUACAGAAGGCACAUGAGGAUCACCCAUGUGAAAA [EX4 396: Minimal 9] | 28.3 nM
41 | AAAAAGAGAGGAUAUACAUGAGGAUCACCCAUGUAACAUUAAAUAAAUAAAAUAAAGUGUAGAAGGCUCAAAAA [65%, Moding Exclusion3-cac2, 24] | 27.9 nM
42 | CUCAAGUCAGGAUAUUUAAGAAAAGAAGAGAAAGAAAAGAAAAAGAAGGGACAUGAGGAUCACCCAUGUAAGAA [EteRNA is fun!] | 60.4 nM
43 | ACAGUUACAGGAUAUACAAGGGUAACUUCAAAUAAACCUCUACAUGAGGAUCACCCAUGUAGAAGGGUAACUGA [Ex2 Design 200 (maybe): Random 16] | 22.8 nM
